From the supplement of paper PMC11316812
± gives the standard deviation of the averaged measurements.

Key:
[1] = system: MCF7; test: percentage of EdU-negative (G0-arrested) nuclei per well, 72 h; higher = more G0 arrest; conditions: reference: sequence is the full UniProt precursor, the tested protein was the secreted form or ectodomain
[2] = system: hTERT-HMEC; test: as above; conditions: reference: sequence is the full UniProt precursor, the tested protein was the secreted form or ectodomain
[3] = protein concentration 0.0225 µM
[4] = protein concentration 0.0294275 µM
[5] = protein concentration 0.294275 µM
[6] = protein concentration 0.03125 µM
[7] = protein concentration 0.3125 µM
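Also: secreted proteins added to cultured cells, EdU pulse at the end, nuclei found by Hoechst imaging, EdU status from nuclear versus surrounding ring intensity ratio, PBS as neutral control.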

Row | Substance | percentage of EdU-negative [1, 3] [%] | percentage of EdU-negative ([1]; protein concentration 0.225 µM) [%] | percentage of EdU-negative [2, 3] [%] | percentage of EdU-negative ([2]; protein concentration 0.225 µM) [%] | further results
1 | MARGSAVAWAALGPLLWGCALGLQGGMLYPQESPSRECKELDGLWSFRADFSDNRRRGFEEQWYRRPLWESGPTVDMPVPSSFNDISQDWRLRHFVGWVWYEREVILPERWTQDLRTRVVLRIGSAHSYAIVWVNGVDTLEHEGGYLPFEADISNLVQVGPLPSRLRITIAINNTLTPTTLPPGTIQYLTDTSKYPKGYFVQNTYFDFFNYAGLQRSVLLYTTPTTYIDDITVTTSVEQDSGLVNYQISVKGSNLFKLEVRLLDAENKVVANGTGTQGQLKVPGVSLWWPYLMHERPAYLYSLEVQLTAQTSLGPVSDFYTLPVGIRTVAVTKSQFLINGKPFYFHGVNKHEDADIRGKGFDWPLLVKDFNLLRWLGANAFRTSHYPYAEEVMQMCDRYGIVVIDECPGVGLALPQFFNNVSLHHHMQVMEEVVRRDKNHPAVVMWSVANEPASHLESAGYYLKMVIAHTKSLDPSRPVTFVSNSNYAADKGAPYVDVICLNSYYSWYHDYGHLELIQLQLATQFENWYKKYQKPIIQSEYGAETIAGFHQDPPLMFTEEYQKSLLEQYHLGLDQKRRKYVVGELIWNFADFMTEQSPTRVLGNKKGIFTRQRQPKSAAFLLRERYWKIANETRYPHSVAKSQCLENSLFT | 24.2 ± 0.95 | 23.4 ± 1.8 | 5.26 ± 0.26 | 5.74 ± 0.95 | –
2 | MERPSLRALLLGAAGLLLLLLPLSSSSSSDTCGPCEPASCPPLPPLGCLLGETRDACGCCPMCARGEGEPCGGGGAGRGYCAPGMECVKSRKRRKGKAGAAAGGPGVSGVCVCKSRYPVCGSDGTTYPSGCQLRAASQRAESRGEKAITQVSKGTCEQGPSIVTPPKDIWNVTGAQVYLSCEVIGIPTPVLIWNKVKRGHYGVQRTELLPGDRDNLAIQTRGGPEKHEVTGWVLVSPLSKEDAGEYECHASNSQGQASASAKITVVDALHEIPVKKGEGAEL | – | – | – | – | percentage of EdU-negative [1, 4]: 25.4 ± 0.77%; percentage of EdU-negative [1, 5]: 26.5 ± 1.5%; percentage of EdU-negative [2, 4]: 4.88 ± 0.84%; percentage of EdU-negative [2, 5]: 5.65 ± 0.3%
3 | MMGLFPRTTGALAIFVVVILVHGELRIETKGQYDEEEMTMQQAKRRQKREWVKFAKPCREGEDNSKRNPIAKITSDYQATQKITYRISGVGIDQPPFGIFVVDKNTGDINITAIVDREETPSFLITCRALNAQGLDVEKPLILTVKILDINDNPPVFSQQIFMGEIEENSASNSLVMILNATDADEPNHLNSKIAFKIVSQEPAGTPMFLLSRNTGEVRTLTNSLDREQASSYRLVVSGADKDGEGLSTQCECNIKVKDVNDNFPMFRDSQYSARIEENILSSELLRFQVTDLDEEYTDNWLAVYFFTSGNEGNWFEIQTDPRTNEGILKVVKALDYEQLQSVKLSIAVKNKAEFHQSVISRYRVQSTPVTIQVINVREGIAFRPASKTFTVQKGISSKKLVDYILGTYQAIDEDTNKAASNVKYVMGRNDGGYLMIDSKTAEIKFVKNMNRDSTFIVNKTITAEVLAIDEYTGKTSTGTVYVRVPDFNDNCPTAVLEKDAVCSSSPSVVVSARTLNNRYTGPYTFALEDQPVKLPAVWSITTLNATSALLRAQEQIPPGVYHISLVLTDSQNNRCEMPRSLTLEVCQCDNRGICGTSYPTTSPGTRYGRPHSGRLGPAAIGLLLLGLLLLLLAPLLLLTCDCGAGSTGGVTGGFIPVPDGSEGTIHQWGIEGAHPEDKEITNICVPPVTANGADFMESSEVCTNTYARGTAVEGTSGMEMTTKLGAATESGGAAGFATGTVSGAASGFGAATGVGICSSGQSGTMRTRHSTGGTNKDYADGAISMNFLDSYFSQKAFACAEEDDGQEANDCLLIYDNEGADATGSPVGSVGCCSFIADDLDDSFLDSLGPKFKKLAEISLGVDGEGKEVQPPSKDSGYGIESCGHPIEVQQTGFVKCQTLSGSQGASALSTSGSVQPAVSIPDPLQHGNYLVTETYSASGSLVQPSTAGFDPLLTQNVIVTERVICPISSVPGNLAGPTQLRGSHTMLCTEDPCSRLI | 27.7 ± 0.58 | 33.34 ± 0.16 | 4.88 ± 0.17 | 13.7 ± 2.7 | –
4 | MVLCFPLLLLLLVLWGPVCPLHAWPKRLTKAHWFEIQHIQPSPLQCNRAMSGINNYTQHCKHQNTFLHDSFQNVAAVCDLLSIVCKNRRHNCHQSSKPVNMTDCRLTSGKYPQCRYSAAAQYKFFIVACDPPQKSDPPYKLVPVHLDSIL | 25.2 ± 2.5 | 25 ± 4.7 | 4.8 ± 0.73 | 7.49 ± 1.4 | –
5 | MAGPLRAPLLLLAILAVALAVSPAAGSSPGKPPRLVGGPMDASVEEEGVRRALDFAVGEYNKASNDMYHSRALQVVRARKQIVAGVNYFLDVELGRTTCTKTQPNLDNCPFHDQPHLKRKAFCSFQIYAVPWQGTMTLSKSTCQDA | – | – | – | – | percentage of EdU-negative [1, 6]: 26.2 ± 1.3%; percentage of EdU-negative [1, 7]: 26.6 ± 2.9%; percentage of EdU-negative [2, 6]: 5.05 ± 0.076%; percentage of EdU-negative [2, 7]: 5.7 ± 0.21%
6 | Q9NP99 | 25.2 ± 3.3 | 25.7 ± 1.1 | 4.69 ± 0.52 | 5.446 ± 0.054 | –
